Reference: patent US20260042834A1, “ANTI-CORTICOTROPIN-RELEASING HORMONE ANTIBODIES AND POLYCYSTIC OVARY SYNDROME” (HBM ALPHA THERAPEUTICS, INC., priority 2022, published 2026)
Changes are numbered by the printed parent chain. Where two headings read alike, the source gives them in different places. One block for each molecule: values may come before it.

Tests used:
biotinylated CRH = target: T1, biotinylated CRH (Homo sapiens, UniProt P06850); test: Affinity determination with Octet; type: binding
T1 construct: purchased GL Biochem 784751
T1 sequence (P06850 154-194): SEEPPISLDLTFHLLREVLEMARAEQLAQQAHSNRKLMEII
Method: Octet® Red 96e was used for affinity measurement. Octet® running buffer was prepared by diluting kinetics buffer 10× (Fortebio, Cat #18-1105) in PBS according to the manufacturer's instructions. Two columns of SA sensors (Fortebio, Cat #18-5019) were hydrated in running buffer for 10 mins, one for ligand capturing and the other for reference. Antibodies were 2-fold diluted and added into a 96-well plate. 30 nM biotinylated CRH (GL Biochem, Cat #784751) was captured by the first column of SA sensors for 20 seconds, while reference sensors were dipped into buffer wells. After a 60-second baseline step, sensors were dipped into analyte and buffer wells successively, with the association and dissociation time of 180 seconds and 800 seconds, respectively. Sensors were regenerated in glycine pH1.5 (Cytiva, Cat #BR-1003-54) before the next cycle. […] Signals of reference wells and reference sensors were subtracted by selecting “Double reference” before data fitting.

[1] = tested on: human CRHR1 (hUCN1-induced); test: Human UCN1-induced luciferase reporter assay, CHO-CRE-hCRHR1 cells; type: cell-based; conditions: Table 10; 1 nM hUCN1
Method: CHO-CRE-hCRHR1 and CHO-CRE-hCRHR2 cells were harvested with trypsin-EDTA (Life Technologies, Cat #:12604-013). Cells were centrifuged at 1,000 rpm for 5 min and resuspended in growth medium. Cells were counted using a cell counter, seeded at 5,000 cells per 100 μl to 96-well flat plates, and incubated overnight. 50 μl of 4× serially diluted antibody (8 points, 1/3 diluted by growth medium) or CP 376395 hydrochloride (TOCRIS, Cat #:3212) (8 points, 1/10 diluted by growth medium) was added to plates, followed by 50 μl 4×hUCN1 (4× is 4 nM, final is 1 nM) to CHO-CRE-hCRHR1 cells or CHO-CRE-hCRHR2 cells. Plates were then incubated for 4-6 hours at 37° C. in a CO2 incubator. Following this, 60 μl of culture medium was removed, to which was added 60 μl of Bio-Glo luciferase, followed by incubation for 10 min at RT. Plates were then read in a luciferase plate reader (EnVision, PerkinElmer).

[2] = target: T2, N-terminal region plus central region, central region only, central region plus C-terminal region of CRH (Homo sapiens, UniProt P06850); test: ELISA determining the binding region of CRH; conditions: dash = no binding
T2 construct: N-terminal region plus the central region (CT biotin), the central region only (NT biotin or CT biotin)
Method: Streptavidin (Thermo, Cat: 21125) was diluted in PBS to a concentration of 2 μg/ml. 100 μl of diluted streptavidin was added per well to ELISA microplates, and the plates were incubated overnight at 4° C. Plates were blocked with ELISA blocking solution (containing 2% w/v BSA, 0.05% (v/v) Tween-20, pH 7.4 PBS buffer) at 37° C. for 1 hour, and then incubated with 1 μg/mL N-terminal region plus the central region (CT biotin), the central region only (NT biotin or CT biotin), or the central region plus C-terminal region (NT biotin) of CRH for 1 hour at 37° C. Plates were then washed and incubated with diluted anti-CRH antibody (Ab) at 15 μg/ml (100 nM, 10 diluted, 8 points) for 1 hour at 37° C. Subsequently, plates were washed and incubated with HRP-conjugated goat anti-human IgG (H+L) antibody (Jackson, Cat: 109-035-088) at 37° C. for 1 hour. 100 μL of 3,3′,5,5′-tetramethylbenzidine (TMB) substrate (Biopanda, Cat: TMB-S-003) was added, and the plates were incubated at room temperature for 15 minutes. 100 μL of ELISA stopping solution (Solarbio, Cat #: C1058) was added to terminate the reaction, and the optical density at 450 nm (OD450 nm) was determined by an ELISA plate reader (Molecular Devices, Spectra max 384 plus).

[3] = central plus C-terminal region CRH peptide, NT-biotin (SEQ ID NO: 483), read-out: ELISA EC50 C-Ter-CRH (NT-Bion)
[4] = central region CRH peptide, CT-biotin (SEQ ID NO: 485), read-out: ELISA EC50 Central-CRH (CT-Bion)
[5] = central region CRH peptide, NT-biotin (SEQ ID NO: 484), read-out: ELISA EC50 Central-CRH (NT-Bion)

- kdis (biotinylated CRH): 0.000136 s⁻¹
- kon (biotinylated CRH): 266000 M⁻¹ s⁻¹
- CHO-CRE-hCRHR1 1 nM hUCH1 IC50 [1]: No Inhibition
- EC50 [2, 3]: > 100 nM
- EC50 [2, 4]: > 100 nM
- EC50 [2, 5]: > 100 nM
B1: PR302309-8: humanized variant of Series 7 mAb PR302309; VH SEQ ID NO: 261, VL SEQ ID NO: 318 (antibody, V domains shown)
VH: QIQLVQSGSELKKPGASVKVSCKASGYTFTNYGMNWVRQAPGQGLEWMGWINTYTGEPIYTDDFKGRFVFSLDTSVSTAYLQISSLKAEDTAVYYCSRSTMITTGGVFAYWGQGTLVTVSS
VL: DVVMTQSPLSLPVTLGQPASISCRSSQTIVHSDGNTYLEWYQQRPGQSPRLLIYKVSNRFSGVPDRFSGSGSGTDFTLKISRVEAEDLGVYYCFQGSHVPWTFGGGTKVEIK
modifications: PR302309-10 VH, PR302309-11 VH, PR302309-12 VH, PR302309-14 VH,PR302309-7 VH, PR302309-8 VH, PR302309-9 VH; PR302309-17 VL, PR302309-18 VL, PR302309-19 VL, PR302309-2 VL,PR302309-8 VL

- kon (biotinylated CRH): 154000 M⁻¹ s⁻¹
- CHO-CRE-hCRHR1 1 nM hUCH1 IC50 [1]: No Inhibition
- EC50 [2, 3]: > 100 nM
- EC50 [2, 4]: > 100 nM
- EC50 [2, 5]: > 100 nM
B2: PR302309-11: humanized variant of Series 7 mAb PR302309; VH SEQ ID NO: 261, VL SEQ ID NO: 315 (antibody, V domains shown)
VH: B1 VH
VL: B1 VL with V2I, S7T, L11S, Y41L, S48P, S72A, L88V
modifications: PR302309-10 VH, PR302309-11 VH, PR302309-12 VH, PR302309-14 VH,PR302309-7 VH, PR302309-8 VH, PR302309-9 VH; PR302309-11 VL, PR302309-5 VL
